The data set concerns the target PABPC1 (residues 1-383) (Homo sapiens, UniProt P11940 P11940:1-383). Kind of data set: FP; 50 mM HEPES, 5 mM EDTA, 250 mM KCl, 10 mM DTT, 0.5 mg/mL BSA, 0.05% Tween-20, yeast total RNA competitor. Particulars: label: Cy3 or 3' biotin. As to the method:
Equilibrium dissociation constants were determined by florescence anisotropy measurements of either unmodified adenosine 12 nucleotide RNA or the Poly(A) SPOT-ON to recombinant human PABPC1 (residues 1-383). Binding reactions were conducted in 50 μL of buffer containing 50 mM HEPES, 5 mM EDTA, 250 mM KCl, 10 mM DTT, 0.5 mg/mL BSA, 0.05% Tween-20, 0.1 mg/mL yeast competitor total RNA (Ambion), and 0.5 nM Cy3-labeled RNA. Measurements were recorded on a Tecan Spark multimode plate reader in triplicate. Data were fit using Kalidagraph as described⁶³

By Kd is commonly meant the concentration at which binding is half-saturated. Low readings indicate tighter binding, high ones weaker binding.

Chain of PABPC1 (residues 1-383) (P11940 1-383, one chain of several): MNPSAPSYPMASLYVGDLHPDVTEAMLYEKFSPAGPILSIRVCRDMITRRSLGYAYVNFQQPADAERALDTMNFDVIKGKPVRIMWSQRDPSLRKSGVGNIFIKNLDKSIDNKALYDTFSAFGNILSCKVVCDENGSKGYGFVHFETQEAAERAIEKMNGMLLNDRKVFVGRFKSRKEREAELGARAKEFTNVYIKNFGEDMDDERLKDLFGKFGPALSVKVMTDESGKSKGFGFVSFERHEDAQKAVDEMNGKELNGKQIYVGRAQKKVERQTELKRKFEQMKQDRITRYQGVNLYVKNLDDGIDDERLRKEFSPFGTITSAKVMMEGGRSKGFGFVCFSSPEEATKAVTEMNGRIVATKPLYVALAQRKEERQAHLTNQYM

B1: Poly(A) SPOT-ON (ssRNA)
RNA: AAAAAAAAAAAA
modifications: 2'-OMe at all riboses; PS at the 5'-most and 3'-most linkages
Regarding B1, the Kd turned out to be 301 nM.

For the origin of these results see patent US20200087662, “INHIBITION OF POLY(A) BINDING PROTEIN AND THE TREATMENT OF PAIN” (Board of Regents, The University of Texas System, published 2020).
